The values that follow are results of earlier work, collected in patent US20140378381A1 (LATITUDE PHARMACEUTICALS, INC., priority 2011, published 2014).

The conditions of series [1]: after injection.

Consider glucagon, for which the onset of action in series [1] was 5 to 20 min. For the same substance, the “glucagon decomposed into degradation products” value (acidic solution (pH 2-4), 24 hours at 37° C.) is given as 5-70%. For the same substance, for the setting “aqueous solutions of pH 3 or less”, the “aggregation in aqueous solution” value is “aggregate to form a gel within an hour”. Further, the solubility in water entry (physiological pH (pH 4-8)) is “insoluble”.
